According to EP4491631A1:

Experiments:
[1] = molecular target: CD122/CD132 complex (His-tagged, Acro Biosystem ILG-H5283) (UniProt P14784); assay: SPR, CD122/CD132 captured on NTA chip
[2] = molecular target: IL-2R on murine splenocytes (mouse) (UniProt P16297); assay: cell-based or functional assay
Sequence of IL-2R on murine splenocytes (mouse) (P16297 27-539, chain 1 of 2): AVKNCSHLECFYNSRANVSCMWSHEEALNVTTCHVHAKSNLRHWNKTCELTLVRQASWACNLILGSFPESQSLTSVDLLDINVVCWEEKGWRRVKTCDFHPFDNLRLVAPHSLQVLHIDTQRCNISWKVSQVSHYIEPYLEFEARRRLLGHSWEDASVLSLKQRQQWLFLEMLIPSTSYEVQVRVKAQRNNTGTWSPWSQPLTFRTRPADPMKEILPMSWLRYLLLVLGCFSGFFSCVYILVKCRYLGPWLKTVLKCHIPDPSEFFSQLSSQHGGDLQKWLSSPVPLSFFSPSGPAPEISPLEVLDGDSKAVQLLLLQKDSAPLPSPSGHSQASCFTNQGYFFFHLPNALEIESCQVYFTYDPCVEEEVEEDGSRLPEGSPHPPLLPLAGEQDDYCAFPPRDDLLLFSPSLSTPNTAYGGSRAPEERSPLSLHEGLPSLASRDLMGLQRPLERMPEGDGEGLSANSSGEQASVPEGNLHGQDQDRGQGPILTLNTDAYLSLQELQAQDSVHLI
Sequence of IL-2R on murine splenocytes (mouse) (P34902 23-369, chain 2 of 2, further chain): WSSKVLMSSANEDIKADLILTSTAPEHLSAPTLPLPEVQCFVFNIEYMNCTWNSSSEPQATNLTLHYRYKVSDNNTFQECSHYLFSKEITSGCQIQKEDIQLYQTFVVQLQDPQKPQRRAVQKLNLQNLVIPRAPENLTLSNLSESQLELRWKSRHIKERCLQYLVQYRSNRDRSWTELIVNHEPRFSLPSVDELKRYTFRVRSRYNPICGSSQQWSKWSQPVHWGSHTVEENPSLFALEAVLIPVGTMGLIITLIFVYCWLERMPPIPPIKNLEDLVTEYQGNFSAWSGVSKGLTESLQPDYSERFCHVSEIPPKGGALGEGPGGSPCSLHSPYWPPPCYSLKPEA

Sequence of CD122/CD132 complex (His-tagged, Acro Biosystem ILG-H5283) (P14784 27-239 limits assumed, chain 1 of 2): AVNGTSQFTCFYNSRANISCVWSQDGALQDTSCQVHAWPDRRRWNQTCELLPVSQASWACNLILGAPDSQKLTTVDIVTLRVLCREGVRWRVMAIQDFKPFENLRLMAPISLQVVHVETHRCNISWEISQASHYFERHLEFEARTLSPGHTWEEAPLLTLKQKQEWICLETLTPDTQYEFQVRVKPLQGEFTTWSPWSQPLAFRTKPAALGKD
Sequence of CD122/CD132 complex (His-tagged, Acro Biosystem ILG-H5283) (P31785 23-262 limits assumed, chain 2 of 2, further chain): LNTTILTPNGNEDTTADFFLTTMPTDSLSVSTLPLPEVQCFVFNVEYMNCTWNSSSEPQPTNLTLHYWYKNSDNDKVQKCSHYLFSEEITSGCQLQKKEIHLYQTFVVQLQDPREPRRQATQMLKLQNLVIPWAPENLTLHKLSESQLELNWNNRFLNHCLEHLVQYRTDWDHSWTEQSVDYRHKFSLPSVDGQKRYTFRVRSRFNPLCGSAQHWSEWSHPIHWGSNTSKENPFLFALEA

Proleukin (ligand) gave a Kd [1] of 0.42 nM, an EC50 CD8 cells (pSTAT5) [2] of 4.1 nM and an EC50 NK cells (pSTAT5) [2] of 1.4 nM. The EC50 Treg cells (pSTAT5) [2] was < 16 pM, the EC50 pSTAT5 on CD8 cells [2] was 11.9 nM and the EC50 pSTAT5 on NK cells [2] was 2.51 nM. The EC50 pSTAT5 on Treg cells [2] was < 20 pM.
